Holding throughout (experiment): SPR
On the technique in general: SPR reads the build-up and loss of mass on a sensor chip optically.

One experiment addresses FcgRIIIa V (human, UniProt P08637).
Another experiment concerns the target T1, FcgRIIb (human, UniProt P31994).
T1 chain: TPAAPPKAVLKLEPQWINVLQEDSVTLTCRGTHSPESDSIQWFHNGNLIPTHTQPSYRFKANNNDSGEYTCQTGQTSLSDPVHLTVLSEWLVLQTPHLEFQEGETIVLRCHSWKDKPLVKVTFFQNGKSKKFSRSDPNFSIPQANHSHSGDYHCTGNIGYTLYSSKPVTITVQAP

The next experiment deals with T2, FcgRIa (human, UniProt P12314).
T2 chain: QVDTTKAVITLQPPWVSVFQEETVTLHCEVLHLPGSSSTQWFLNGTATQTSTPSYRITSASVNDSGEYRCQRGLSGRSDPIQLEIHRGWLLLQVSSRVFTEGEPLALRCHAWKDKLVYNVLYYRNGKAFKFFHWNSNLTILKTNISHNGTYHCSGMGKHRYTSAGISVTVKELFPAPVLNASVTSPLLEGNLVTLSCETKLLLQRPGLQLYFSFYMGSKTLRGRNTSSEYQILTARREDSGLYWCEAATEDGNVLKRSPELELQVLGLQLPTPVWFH

In another experiment the target is T3, FcgRIIa R (human, UniProt P12318).
T3 chain: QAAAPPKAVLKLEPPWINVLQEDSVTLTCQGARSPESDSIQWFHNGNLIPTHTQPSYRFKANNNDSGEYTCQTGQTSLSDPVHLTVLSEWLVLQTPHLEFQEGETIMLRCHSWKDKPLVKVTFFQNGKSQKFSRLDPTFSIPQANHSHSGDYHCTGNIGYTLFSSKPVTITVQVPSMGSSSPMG

The target in a further experiment is FcgRIIIa F (human, UniProt P08637).
Chain of FcgRIIIa F (P08637 17-208): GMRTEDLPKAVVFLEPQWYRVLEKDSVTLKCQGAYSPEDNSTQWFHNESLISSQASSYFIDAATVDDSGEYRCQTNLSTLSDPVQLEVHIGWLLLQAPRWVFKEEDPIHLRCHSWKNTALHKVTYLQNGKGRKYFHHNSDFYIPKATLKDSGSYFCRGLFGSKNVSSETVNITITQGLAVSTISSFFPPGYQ
The target in another experiment is T4, FcgRIIa H (human, UniProt P12318).
T4 chain: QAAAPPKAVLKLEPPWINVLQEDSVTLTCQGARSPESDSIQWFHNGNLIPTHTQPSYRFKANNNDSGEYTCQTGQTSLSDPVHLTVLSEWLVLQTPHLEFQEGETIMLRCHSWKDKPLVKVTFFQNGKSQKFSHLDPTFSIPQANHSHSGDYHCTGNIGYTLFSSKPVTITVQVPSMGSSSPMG

One may read the Kd as the free concentration of one partner at which half of the binding sites on the other are occupied at equilibrium, for simple one-to-one binding. Low values mean a tighter complex, high ones a looser complex.

Chain of FcgRIIIa V (P08637 17-208 F176V): as the sequence (P08637 17-208) above, with F160V counted along it

B1: H240-Kn203/H240-Hl210/L73-k0 (antibody)
chain 1: QDQLVQSGAEVKKPGASVKVSCKASGFNIKDTYIQWVRQAPGQGLEWMGRIDPLRKQTKYREKFEGRVTITADTSTNTAYMELSSLRSEDTAVYYCVRSGREFDYWGQGTLVTVSSASTKGPSVFPLAPSSKSTSGGTAALGCLVKDYFPEPVTVSWNSGALTSGVHTFPAVLQSSGLYSLSSVVTVPSSSLGTQTYICNVNHKPSNTKVDKKVEPKSCDKTHTCPPCPAPEFYWGPMVFLFPPKPKDTLMISRTPEVTCVVVDVSDEDPEVKFNWYVDGVEVHNAKTKPREEQYNATYRVVSVLTVLHQDWLNGKEYKCKVSNKDLPAPIEKTISKAKGQPREPQVCTLPPSRDELTKNQVSLWCLVKGFYPSDIAVEWESNGQPENNYKTTPPVLDSDGSFFLYSKLTVDKSRWQQGNVFSCSVMHEALHNHYTQKSLSLSP
chain 2: QDQLVQSGAEVKKPGASVKVSCKASGFNIKDTYIQWVRQAPGQGLEWMGRIDPLRKQTKYREKFEGRVTITADTSTNTAYMELSSLRSEDTAVYYCVRSGREFDYWGQGTLVTVSSASTKGPSVFPLAPSSKSTSGGTAALGCLVKDYFPEPVTVSWNSGALTSGVHTFPAVLQSSGLYSLSSVVTVPSSSLGTQTYICNVNHKPSNTKVDKKVEPKSCDKTHTCPPCPAPELLGGPSVFLFPPKPKDTLMISRTPEVTCVVVDVSHEEPEVKFNWYVDGVEVHNAKTKPREEQYNSTYRVVSVLTVLHQDWLNGKEYKCKVSNDALPAPIEETISKAKGQPREPQVYTLPPSRCELTKNQVSLSCAVKGFYPSDIAVEWESNGQPENNYKTTPPVLDSDGSFFLVSKLTVDKSRWQQGNVFSCSVMHEALHNHYTQKSLSLSP
chain 3: DIQMTQSPSSLSASVGDRVTITCRASQDIHKYIAWYQQKPGQAPRLLIQYTSTLQPGVPSRFSGSGSGTDYTFTISSLQPEDIATYYCLQYEQLRTFGGGTKVEIKRTVAAPSVFIFPPSDEQLKSGTASVVCLLNNFYPREAKVQWKVDNALQSGNSQESVTEQDSKDSTYSLSSTLTLSKADYEKHKVYACEVTHQGLSSPVTKSFNRGEC
For B1, the Kd with FcgRIIIa V stood at 0.45 nM; in the experiment with FcgRIIb, 300 nM; with FcgRIa, 0.16 nM; in the experiment with FcgRIIa R, 56 nM; with FcgRIIIa F, 3 nM; with FcgRIIa H, 93 nM.

B2: H240-Kn228/H240-Hl210/L73-k0 (antibody)
chain 1: QDQLVQSGAEVKKPGASVKVSCKASGFNIKDTYIQWVRQAPGQGLEWMGRIDPLRKQTKYREKFEGRVTITADTSTNTAYMELSSLRSEDTAVYYCVRSGREFDYWGQGTLVTVSSASTKGPSVFPLAPSSKSTSGGTAALGCLVKDYFPEPVTVSWNSGALTSGVHTFPAVLQSSGLYSLSSVVTVPSSSLGTQTYICNVNHKPSNTKVDKKVEPKSCDKTHTCPPCPAPEDQWGPIVFLFPPKPKDTLMISRTPEVTCVVVDVSDEEPEVKFNWYVDGVEVHNAKTKPREEQYNATYRVVSVLTVLHQDWLNGKEYKCKVSNKALPAPIEKTISKAKGQPREPQVCTLPPSRDELTKNQVSLWCLVKGFYPSDIAVEWESNGQPENNYKTTPPVLDSDGSFFLYSKLTVDKSRWQQGNVFSCSVMHEALHNHYTQKSLSLSP
chain 2: QDQLVQSGAEVKKPGASVKVSCKASGFNIKDTYIQWVRQAPGQGLEWMGRIDPLRKQTKYREKFEGRVTITADTSTNTAYMELSSLRSEDTAVYYCVRSGREFDYWGQGTLVTVSSASTKGPSVFPLAPSSKSTSGGTAALGCLVKDYFPEPVTVSWNSGALTSGVHTFPAVLQSSGLYSLSSVVTVPSSSLGTQTYICNVNHKPSNTKVDKKVEPKSCDKTHTCPPCPAPELLGGPSVFLFPPKPKDTLMISRTPEVTCVVVDVSHEEPEVKFNWYVDGVEVHNAKTKPREEQYNSTYRVVSVLTVLHQDWLNGKEYKCKVSNDALPAPIEETISKAKGQPREPQVYTLPPSRCELTKNQVSLSCAVKGFYPSDIAVEWESNGQPENNYKTTPPVLDSDGSFFLVSKLTVDKSRWQQGNVFSCSVMHEALHNHYTQKSLSLSP
chain 3: DIQMTQSPSSLSASVGDRVTITCRASQDIHKYIAWYQQKPGQAPRLLIQYTSTLQPGVPSRFSGSGSGTDYTFTISSLQPEDIATYYCLQYEQLRTFGGGTKVEIKRTVAAPSVFIFPPSDEQLKSGTASVVCLLNNFYPREAKVQWKVDNALQSGNSQESVTEQDSKDSTYSLSSTLTLSKADYEKHKVYACEVTHQGLSSPVTKSFNRGEC
Take B2: the Kd stood at 0.81 nM in the experiment with FcgRIIIa V; 1700 nM with FcgRIIb; 0.16 nM with FcgRIa; 200 nM with FcgRIIa R; 4.4 nM in the experiment with FcgRIIIa F; 190 nM with FcgRIIa H.

B3: H240-Kn235/H240-Hl068/L73-k0 (antibody)
chain 1: QDQLVQSGAEVKKPGASVKVSCKASGFNIKDTYIQWVRQAPGQGLEWMGRIDPLRKQTKYREKFEGRVTITADTSTNTAYMELSSLRSEDTAVYYCVRSGREFDYWGQGTLVTVSSASTKGPSVFPLAPSSKSTSGGTAALGCLVKDYFPEPVTVSWNSGALTSGVHTFPAVLQSSGLYSLSSVVTVPSSSLGTQTYICNVNHKPSNTKVDKKVEPKSCDKTHTCPPCPAPEFYWGPIVFLFPPKPKDTLMISRTPEVTCVVVDVSDEDPEVKFNWYVDGVEVHNAKTKPREEQYNATYRVVSVLTVLHQDWLNGKEYKCKVSNKDLPAPIEKTISKAKGQPREPQVCTLPPSRDELTKNQVSLWCLVKGFYPSDIAVEWESNGQPENNYKTTPPVLDSDGSFFLYSKLTVDKSRWQQGNVFSCSVMHEALHNHYTQKSLSLSP
chain 2: QDQLVQSGAEVKKPGASVKVSCKASGFNIKDTYIQWVRQAPGQGLEWMGRIDPLRKQTKYREKFEGRVTITADTSTNTAYMELSSLRSEDTAVYYCVRSGREFDYWGQGTLVTVSSASTKGPSVFPLAPSSKSTSGGTAALGCLVKDYFPEPVTVSWNSGALTSGVHTFPAVLQSSGLYSLSSVVTVPSSSLGTQTYICNVNHKPSNTKVDKKVEPKSCDKTHTCPPCPAPELLGGPSVFLFPPKPKDTLMISRTPEVTCVVVDVSHEEPEVKFNWYVDGVEVHNAKTKPREEQYNSTYRVVSVLTVLHQDWLNGKEYKCKVSNDALPKPIEETISKAKGQPREPQVYTLPPSRCELTKNQVSLSCAVKGFYPSDIAVEWESNGQPENNYKTTPPVLDSDGSFFLVSKLTVDKSRWQQGNVFSCSVMHEALHNHYTQKSLSLSP
chain 3: DIQMTQSPSSLSASVGDRVTITCRASQDIHKYIAWYQQKPGQAPRLLIQYTSTLQPGVPSRFSGSGSGTDYTFTISSLQPEDIATYYCLQYEQLRTFGGGTKVEIKRTVAAPSVFIFPPSDEQLKSGTASVVCLLNNFYPREAKVQWKVDNALQSGNSQESVTEQDSKDSTYSLSSTLTLSKADYEKHKVYACEVTHQGLSSPVTKSFNRGEC
Turning to B3, the Kd is 0.87 nM with FcgRIIIa V; 220 nM with FcgRIIb; 0.15 nM in the experiment with FcgRIa; 23 nM with FcgRIIa R; 2.7 nM with FcgRIIIa F; 37 nM with FcgRIIa H.

B4: H240-Kn198/H240-Hl210/L73-k0 (antibody)
chain 1: QDQLVQSGAEVKKPGASVKVSCKASGFNIKDTYIQWVRQAPGQGLEWMGRIDPLRKQTKYREKFEGRVTITADTSTNTAYMELSSLRSEDTAVYYCVRSGREFDYWGQGTLVTVSSASTKGPSVFPLAPSSKSTSGGTAALGCLVKDYFPEPVTVSWNSGALTSGVHTFPAVLQSSGLYSLSSVVTVPSSSLGTQTYICNVNHKPSNTKVDKKVEPKSCDKTHTCPPCPAPELQWGPMVFLFPPKPKDTLMISRTPEVTCVVVDVSDEEPEVKFNWYVDGVEVHNAKTKPREEQYNATYRVVSVLTVLHQDWLNGKEYKCKVSNKALPAPIEKTISKAKGQPREPQVCTLPPSRDELTKNQVSLWCLVKGFYPSDIAVEWESNGQPENNYKTTPPVLDSDGSFFLYSKLTVDKSRWQQGNVFSCSVMHEALHNHYTQKSLSLSP
chain 2: QDQLVQSGAEVKKPGASVKVSCKASGFNIKDTYIQWVRQAPGQGLEWMGRIDPLRKQTKYREKFEGRVTITADTSTNTAYMELSSLRSEDTAVYYCVRSGREFDYWGQGTLVTVSSASTKGPSVFPLAPSSKSTSGGTAALGCLVKDYFPEPVTVSWNSGALTSGVHTFPAVLQSSGLYSLSSVVTVPSSSLGTQTYICNVNHKPSNTKVDKKVEPKSCDKTHTCPPCPAPELLGGPSVFLFPPKPKDTLMISRTPEVTCVVVDVSHEEPEVKFNWYVDGVEVHNAKTKPREEQYNSTYRVVSVLTVLHQDWLNGKEYKCKVSNDALPAPIEETISKAKGQPREPQVYTLPPSRCELTKNQVSLSCAVKGFYPSDIAVEWESNGQPENNYKTTPPVLDSDGSFFLVSKLTVDKSRWQQGNVFSCSVMHEALHNHYTQKSLSLSP
chain 3: DIQMTQSPSSLSASVGDRVTITCRASQDIHKYIAWYQQKPGQAPRLLIQYTSTLQPGVPSRFSGSGSGTDYTFTISSLQPEDIATYYCLQYEQLRTFGGGTKVEIKRTVAAPSVFIFPPSDEQLKSGTASVVCLLNNFYPREAKVQWKVDNALQSGNSQESVTEQDSKDSTYSLSSTLTLSKADYEKHKVYACEVTHQGLSSPVTKSFNRGEC
On to B4, for which the Kd came to 1 nM in the experiment with FcgRIIIa V; 3100 nM in the experiment with FcgRIIb; 0.047 nM in the experiment with FcgRIa; 480 nM in the experiment with FcgRIIa R; 4.9 nM with FcgRIIIa F; 120 nM with FcgRIIa H.

For the origin of these results see patent US10766960 (dated 2020).
